The values below come from PMC5069464.

Holding throughout (settings): glycan lost; control: wild type
Series [1] is described as follows: puromycin chase, >250 kDa band at 48 hr.
A short description of series [2]: whole-cell pre-pulse protocol, Boltzmann fit.
Series [3] is described as follows: high-throughput patch (IonWorks Barracuda), peak current. For orientation: In patch-clamp work, channel activity is measured electrically.
A short description of series [4]: whole-cell tail currents, Boltzmann fit.
The nature of series [5]: cell-attached single-channel recording, tsA201.

On to hCaV3.3 α1 subunit: R1346H, for which the “degradation_or_half_life, other: fraction of pre-puromycin level” value in series [1] is “no change, 0.50 ± 0.12 vs 0.36 ± 0.08”. In addition, the “other: voltage dependence of inactivation, other: V1/2” value in series [2] is recorded as “no change, −69.4 ± 1.4 vs −67.1 ± 0.89”. In series [3], the “other: channel current, other: median peak current” value is “decreases, 0.56 vs 1.30”. The “other: voltage dependence of activation, other: V1/2-negative” value in series [4] is “no change, −37.6 ± 0.99 vs −40.0 ± 0.98”. The “other: single-channel conductance, other: conductance” value in series [5] was “no change, 13.7 ± 0.6 vs 14.0 ± 0.8”.
